In patent US20260217819A1 (HANSOH BIO, published 2026):

Tests used:
[1] = biological target: human CDH17 as originally expressed in cells (AsPC1, GP2d) (human, UniProt Q12864 23-832); test: cell-based or functional assay
[2] = biological target: cynomolgus CDH17-His tag (Acro Biosystems, catalog number CA7-C52H4) (cynomolgus); test: Octet BLI, antibody on AHC biosensor, His-tagged antigen 200 nM to 3.1 nM

Kd [2] [nM]	koff [2] [s⁻¹]	kon [2] [M⁻¹ s⁻¹]	Binder	IC50 of indirect killing assay to evaluate the internalization of recombinant anti-CDH17 antibodies into AsPC1 cells [1] [nM]
15	0.0012	80000	anti-CDH17 recombinant antibody 10E11 (human IgG1) (antibody, V domains shown) VH: EVQLVQSGTEVKKPGESLKISCKDSGYRFSSYWIGWVRQMPGKGLEWMGIIYPGDSDTRYSPSFQGQVTISADKSISTAYLQWRSLKASDTAMYYCARRGWVNYFDYWGQGTLVTVSS VL: DIQMTQSPSSVSASVGDRVTITCRASQGISNWLGWYQQKPGKAPKLLIYAASSLQSGVPSRFSGSGSGTDFTLTISSLQPEDFATYYCQQANSFPLTFGGGTKVEIKR	0.08
–	–	–	anti-CDH17 recombinant antibody 1H10 (human IgG1) (antibody, V domains shown) VH: QVQLVESGGGVVQPGRSLRLSCVASGFTFSSYGMHWVRQAPGKGLEWVTFIWYDGSNKNYADSVKGRFTISRDNSKNTLNLQMNSLRVEDTAVYYCARDRYSSGWDVFDYWGQGTLVTVSS VL: DIQMTQSPSSVSASVGDRVTITCRASQDISSWLAWYQQQPGKAPKLQIYAASSLQSGVPSRFSGSGSGTDFTLTISSLQPEDFATYYCQQAKSFPPTFGQGTKVEIKR	0.19
–	–	–	anti-CDH17 recombinant antibody 15A4 (human IgG1) (antibody, V domains shown) VH: QVQLVESGGGVVQPGRSLRLSCAASGFNFSSYGMHWVRQAPGKGLEWVAFVWYDGSNQNYADSVKGRFTISRDNSNNTLYLQMNSLRAEDTAVYYCARDRYSSGWDVFDYWGQGTLVTVSS VL: DIQMTQSPSSVSASVGDRVTITCRASQGISSWLAWYQQKPGKAPKLLIFAASSLQSGVPSRFSGSGSGTGFTLTISSLQPEDFATYYCQQAKSFPPTFGQGTKVEIKR	1.99
–	–	–	anti-CDH17 recombinant antibody 17F3 (human IgG1) (antibody, V domains shown) VH: EVQLVESGGGLVKSGGSLRLSCAASGFTFSSYSLKWVRQAPGKGLEWVSSISSSSGYIYYADSVKGRFTISRDNAKNSLYLQMNSLRAEDTAMYYCARAVSTIAARPGYYYYYMDVWGKGTLVTVSS VL: DIQMTQSPSSVSASIGDRVTITCRASQDISTWFAWYQQKPGKAPKLLIYAASTLRSGVPSRFSGSGSGTDFTLTINSLQPEDFATYYCQQANSFPLTFGGGTKVEIKR	0.08
–	–	–	anti-CDH17 recombinant antibody 4F9 (human IgG1) (antibody, V domains shown) VH: QVQLQESGPGLVKPSGTLSLTCAVSGGSISSSNWWSWVRQPPGKGLEWIGEIYHSGSTSYNPSLKSRVTISVDKSKNQFSLKLSSVTAADTAVYYCARNDWGFPLDCWGQGTLVTVSS VL: DIQMTQSPSSLSASVGDRVTITCRASQSISSYLNWYQQKPGKAPKLLIYAASSLQSGVPSRFSGSGSGTHFTLTISSLQPEDFATYYCQQSHNIPITFGQGTRLEIKR	0.29
2.5	–	620000	anti-CDH17 recombinant antibody 14B12 (human IgG1) (antibody, V domains shown) VH: QVQLQESGPGLVKPSETLSLTCTVSGGSINTYYRSWIRQPPGKGLEWIGYIYYSGNTNYNPSLKSRVTISADTSKNQFSLNLISVTAADTAMYYCARAQYGEEAFDIWGQGTLVTVSS VL: DIQMTQSPSSLSASVGDRVTITCRASQSITTYLNWYQQKPGKAPQLLIFAASRLQTGVPSRFSGSGSGTDFTLTISSLLPGDFATYYCQQSYNTPPTFGGGTKVEIKR	0.09
–	–	–	anti-CDH17 recombinant antibody 2F9 (human IgG1) (antibody, V domains shown) VH: EVQLVESGGGVVRPGGSLRLSCAASGFTFDDYGMSWVRQAPGKGLEWVSGLSWNGGNTYYADSVKGRFTISRDNAKNSLYLQMNSLRAEDTALYYCARGSRYNWNYDAFDIWGQGTLVTVSS VL: DIQMTQSPSSLSASIGDRVTITCRASQGIRNALGWYQQKPGKAPKRLIYAASNLQSGVPSRFSGSGSGTEFTLTISSLQPEDFATYYCLQHNSYPFTFGPGTKVEIKR	0.14
–	–	–	anti-CDH17 recombinant antibody 9E2 (human IgG1) (antibody, V domains shown) VH: EVQLVESGGGVVRPGGSLRLSCAASGFTFDNYGMSWVRQAPGKGLEWVSGINWNGGSTYYADSVRGRFTISRDNAKNSLYLQMNSLRAEDTALYYCARGSRYNWSYDAFDIWGQGTLVTVSS VL: DIQMTQSPSSLSASVGDRVTITCRASQGVRNALGWYQQKPGKAPKRLIYAASSLQSGVPSRFSGSGSGTEFTLTISSLQPEDFATYYCLQHNSYPFTFGPGTKVEIKR	0.15
–	–	–	anti-CDH17 recombinant antibody 13C7 (human IgG1) (antibody, V domains shown) VH: QITLKESGPTLVKPTQTLTLTCTFSGFSLSTSGVGVGWIRQPPGKALEWLALIYWNDDKRYRPSLKNRLTITKDTSKNQVVLTMTNMDPVDTATYYCTHYGVTAPFYNWFDPWGQGTLVTVSS VL: DIQMTQSPSSLSASVGDRVTITCRASQSITSYLNWYQQKPGKAPKLLIYAASSLQSGVPSRFSGSGSGTDFTLTISSLQPEDFATYYCQRSYSTLTFGGGTKVEIKR	0.09
–	–	–	anti-CDH17 recombinant antibody 19C7 (human IgG1) (antibody, V domains shown) VH: QITLKESGPTLVKPTQTLTLTCTFSGISLSTGGVGVGWIRQPPGKALEWLSLIYWNDDKRYSPSLKSRLTITKDSSKNQVVLTMTNMDPVDTATYYCAHSGLAAPFYNWFDPWGQGTLVTVSS VL: DIQMTQSPSSLSASVGDRVTITCRASQSISNYLNWYQLKPGNAPKLLIFAASSLQSGVPSRFSGSGSGTDFTLTISSLQPEDFATYFCQRSYSTLTFGGGTKVEIKR	0.09
